We go through 1 molecule from patent publication US6514747B2 (UT-Battelle, LLC, priority 1993, dated 2003).

Read-outs that look alike come from different tables or passages of the source.

Holding throughout (format): cell-based
The target of data set [1] is T1, human TSH-receptor (Homo sapiens, UniProt P16473).
T1 construct: expressed in transfected cells; host or cells: 293 (human embryonic kidney) cells
In words: TSH-stimulated adenylyl cyclase in TSH-R-transfected 293 cells. The settings on record: agouti 0.7 nM. The method, then: 293 cells (5×10^5) and 293 cells expressing human TSH-R were preloaded with 5 μCi ^3H-adenine for 1.5 h at 37° C. in a 5% CO2 incubator.
Medium was aspirated and 2.5% perchloric acid containing 0.1 mM cAMP was used to stop the incubation. Adenylyl cyclase activity was calculated by determining the percent conversion of ^3H-adenine to ^3H-cAMP as described (Salomon, 1991; Johnson and Salomon, 1991). Correlation of cAMP accumulation measured in this assay with actual adenylyl cyclase activity is made under the assumption that isobutymethylxanthine effectively blocks cAMP degradation. Data represent means and standard deviations from triplicate data points.

For data set [2], the target named is T2, murine MSH-R (Mus musculus, UniProt Q01727).
T2 construct: expressed in transfected cells; host or cells: 293 cells, stably transfected
In words: α-MSH activation of murine MSH-R in stably transfected 293 cells (adenylyl cyclase). The conditions noted are these: agouti 0.7 nM.

In data set [3] the target is T3, human MSH-R (Homo sapiens, UniProt Q01726).
T3 construct: expressed in transfected cells; host or cells: human embryonic kidney 293 cells (printed '292')
In words: activation of human MSH-R in 293 cells (adenylyl cyclase). The settings on record: 0.7 nM agouti.

Data set [4] deals with T4, rat MC3-R (Rattus norvegicus, UniProt P32244).
T4 construct: expressed in transfected cells; host or cells: 293 cells
In words: α-MSH activation of rat MC3-R in transfected 293 cells (adenylyl cyclase). The settings on record: agouti 0.7 nM.

Data set [5] has as its target T5, mouse MC5-R (Mus musculus, UniProt P41149).
T5 construct: expressed in transfected cells; host or cells: 293 cells
In words: α-MSH activation of mouse MC5-R in transfected 293 cells (adenylyl cyclase).

Data set [6] deals with 3T3-L1 adipocytes. In words: lipogenesis in 3T3-L1 adipocytes (FAS and SCD mRNA, FAS activity, triglyceride content).
Data set [7] deals with L6 skeletal myocytes. In words: [Ca2+]i in L6 skeletal myocytes (fura 2). The conditions noted are these: for [Ca2+]i Increase over Baseline: 400 s, n = 8.
For data set [8], the system named is A7r5 vascular smooth muscle cells. In words: [Ca2+]i in A7r5 vascular smooth muscle cells (fura 2). The settings on record: 400 s, n = 8. The protocol: The spontaneously fusing L6 skeletal muscle cells [American Type Culture Collection (ATCC), Bethesda, MD] were grown in 75-cm^2 flasks in Dulbecco's modified Eagle's medium with 10% glucose (DMEM) supplemented with 5% fetal bovine serum (FBS, vol/vol), 5% calf serum supplemented iron enriched (CS, vol/vol, and antibiotics (50 U penicillin/ml and 5 μg of streptomycin/ml). Cultures were maintained in continuous passages (<20) by trypsinization (0.05% trypsin) of semiconfluent nonfused cells. A7r5 vascular smooth muscle cells (ATCC) were grown in the same conditions as for L6 cells. 3T3-L1 cells (ATCC) were grown in 100-mm dishes in DMEM containing 10% FBS and antibiotics. For differentiation of fibroblasts into adipocytes, confluent cells were incubated in DMEM-FBS containing 0.5 mM 3-isobutyl-1-methylxanthine (IBMX; Sigma, St. Louis, Mo.) and 0.25 μM dexamethasone (Dex; Sigma) for 60 h. […]
[Ca^2+]i was measured in L6, A7r5, and HEK-293 cells (Zemel et al., 1995) as previously described and in 3T3-L1 cells as described by Klip and Ramlal (1987). […] [Ca^2+]i levels were then measured fluorometrically in suspensions using dual excitation (340 and 380 nm)-single emission (510 nm) fluorometry as previously described (Zemel et al., 1995). [Ca^2+]i was then calculated by the computer in the fluorometer with the equation of Grynkiewicz et al. (1985). […]

Data set [9] concerns 3T3-L1 adipocytes. Kind of data set: [Ca2+]i in 3T3-L1 adipocytes (fura 2). The conditions noted are these: for [Ca2+]i Increase over Baseline: 400 s, n = 8. The protocol: The spontaneously fusing L6 skeletal muscle cells [American Type Culture Collection (ATCC), Bethesda, MD] were grown in 75-cm^2 flasks in Dulbecco's modified Eagle's medium with 10% glucose (DMEM) supplemented with 5% fetal bovine serum (FBS, vol/vol), 5% calf serum supplemented iron enriched (CS, vol/vol, and antibiotics (50 U penicillin/ml and 5 μg of streptomycin/ml). Cultures were maintained in continuous passages (<20) by trypsinization (0.05% trypsin) of semiconfluent nonfused cells. A7r5 vascular smooth muscle cells (ATCC) were grown in the same conditions as for L6 cells. 3T3-L1 cells (ATCC) were grown in 100-mm dishes in DMEM containing 10% FBS and antibiotics. For differentiation of fibroblasts into adipocytes, confluent cells were incubated in DMEM-FBS containing 0.5 mM 3-isobutyl-1-methylxanthine (IBMX; Sigma, St. Louis, Mo.) and 0.25 μM dexamethasone (Dex; Sigma) for 60 h. IBMX and Dex were then removed, and cells remained in DMEM-FBS with 250 μg/ml geneticin and compared with nontransfected HEK-293 cells. All types of cells were maintained at 37° C. in an atmosphere containing 5% CO2 and 100% humidity. Cell culture reagents, FBS, CS, and trypsin-EDTA were obtained from GIBCO/BRL (Grand Island, N.Y.).
Viruses incorporating this vector were produced by standard methods (Lu et al., 1994). Spodoptera frugiperda cells (Sf-9) were propagated in Grace's supplemented medium containing 10% CS and 0.1% Pluronic F68 and used to produce […] viral stocks. Fifteen-liter scale production runs of murine or human agouti were produced using T. ni cells adapted to suspension (JRH Biosciences, Woodland, Calif.). T ni cells were infected 24 h postseeding at a density of 10^6 cells/ml, and conditioned media from infected cells were harvested 48 h after infection filtered through a Whatman 3 filter and purified as recently described (Willard et al., 1995).
[Ca^2+]i was measured in L6, A7r5, and HEK-293 cells (Zemel et al., 1995) as previously described and in 3T3-L1 cells as described by Klip and Ramlal (1987). Monolayers of nonfused L6 cells and confluent A7r5 cells after 14-16 h of starvation in a serum-free culture medium were rinsed with Hanks' balanced salt solution (HBSS), detached by incubation in 2 ml trypsin (0.05%) for 2-3 min at 37° C., and released by pipetting without trypsinization. Cells were harvested by centrifugation at 50 g and resuspended in 1 ml HBSS at a density of ˜10^6 cells/ml. […] [Ca^2+]i levels were then measured fluorometrically in suspensions using dual excitation (340 and 380 nm)-single emission (510 nm) fluorometry as previously described (Zemel et al., 1995). [Ca^2+]i was then calculated by the computer in the fluorometer with the equation of Grynkiewicz et al. (1985). […]

T5 sequence (P41149 whole entry): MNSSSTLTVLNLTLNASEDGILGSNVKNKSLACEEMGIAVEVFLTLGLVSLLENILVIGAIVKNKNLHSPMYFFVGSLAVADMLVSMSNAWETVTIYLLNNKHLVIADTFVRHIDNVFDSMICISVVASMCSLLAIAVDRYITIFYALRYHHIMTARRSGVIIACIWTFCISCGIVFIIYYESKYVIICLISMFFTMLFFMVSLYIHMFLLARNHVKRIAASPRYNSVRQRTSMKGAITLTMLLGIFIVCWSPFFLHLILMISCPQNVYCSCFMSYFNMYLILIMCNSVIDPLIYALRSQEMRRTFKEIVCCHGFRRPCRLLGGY
T1 sequence (P16473 21-764): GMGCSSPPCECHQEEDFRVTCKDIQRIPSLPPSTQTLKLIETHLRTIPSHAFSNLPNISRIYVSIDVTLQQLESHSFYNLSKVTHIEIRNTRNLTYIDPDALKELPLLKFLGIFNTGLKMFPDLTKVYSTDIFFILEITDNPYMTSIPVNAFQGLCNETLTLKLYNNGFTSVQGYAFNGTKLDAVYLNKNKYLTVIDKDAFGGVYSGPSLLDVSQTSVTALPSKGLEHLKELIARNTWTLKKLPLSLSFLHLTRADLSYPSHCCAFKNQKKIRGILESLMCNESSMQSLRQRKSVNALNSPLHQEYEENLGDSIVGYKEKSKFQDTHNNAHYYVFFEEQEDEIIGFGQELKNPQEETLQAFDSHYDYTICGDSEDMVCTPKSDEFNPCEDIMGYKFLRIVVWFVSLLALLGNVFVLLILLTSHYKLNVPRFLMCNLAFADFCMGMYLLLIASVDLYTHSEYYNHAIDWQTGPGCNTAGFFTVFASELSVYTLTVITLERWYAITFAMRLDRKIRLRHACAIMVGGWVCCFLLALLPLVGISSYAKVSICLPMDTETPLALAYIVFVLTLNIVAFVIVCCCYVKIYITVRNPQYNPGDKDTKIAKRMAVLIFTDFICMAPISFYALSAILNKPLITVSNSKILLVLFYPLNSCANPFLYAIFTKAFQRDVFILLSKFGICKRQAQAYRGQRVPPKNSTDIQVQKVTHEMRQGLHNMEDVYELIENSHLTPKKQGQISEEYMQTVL
T2 sequence (Q01727 whole entry): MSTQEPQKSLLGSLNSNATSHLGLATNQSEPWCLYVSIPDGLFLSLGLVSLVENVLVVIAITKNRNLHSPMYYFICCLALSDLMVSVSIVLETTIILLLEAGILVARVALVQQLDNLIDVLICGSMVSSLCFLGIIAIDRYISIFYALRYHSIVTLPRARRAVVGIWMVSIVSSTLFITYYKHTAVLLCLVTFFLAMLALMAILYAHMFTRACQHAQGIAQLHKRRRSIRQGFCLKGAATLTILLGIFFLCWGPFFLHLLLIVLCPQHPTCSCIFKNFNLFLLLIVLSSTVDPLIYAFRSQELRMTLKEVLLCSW
T4 sequence (P32244 whole entry): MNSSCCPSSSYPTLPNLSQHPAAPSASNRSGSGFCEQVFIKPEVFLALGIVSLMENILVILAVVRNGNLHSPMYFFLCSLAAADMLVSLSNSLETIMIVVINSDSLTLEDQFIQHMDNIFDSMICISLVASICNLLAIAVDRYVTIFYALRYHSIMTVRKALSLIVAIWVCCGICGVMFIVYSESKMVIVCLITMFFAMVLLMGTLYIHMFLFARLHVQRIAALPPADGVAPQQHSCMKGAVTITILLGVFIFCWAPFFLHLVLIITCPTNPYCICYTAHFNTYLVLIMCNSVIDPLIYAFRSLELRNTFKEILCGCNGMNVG
T3 sequence (Q01726 whole entry): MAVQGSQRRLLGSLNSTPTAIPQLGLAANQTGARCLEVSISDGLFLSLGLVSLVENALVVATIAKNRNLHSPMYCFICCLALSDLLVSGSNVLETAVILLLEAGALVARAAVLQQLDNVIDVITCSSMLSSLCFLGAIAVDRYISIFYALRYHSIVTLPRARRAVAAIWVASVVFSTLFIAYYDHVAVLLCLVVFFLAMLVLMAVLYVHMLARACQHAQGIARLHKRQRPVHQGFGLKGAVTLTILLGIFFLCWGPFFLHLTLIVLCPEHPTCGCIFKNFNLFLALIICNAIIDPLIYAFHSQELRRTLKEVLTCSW

B1: agouti: recombinant mouse agouti protein (131 amino acids, SEQ ID NO:2) produced with the baculovirus expression system in T. ni cells (protein, listed as Mus musculus)
chain: MDVTRLLLATLVSFLCFFTVHSHLALEETLGDDRSLRSNSSMNSLDFSSVSIVALNKKSKKISRKEAEKRKRSSKKKASMKKVARPPPPSPCVATRDSCKPPAPACCDPCASCQCRFFGSACTCRVLNPNC
Consider B1, for which the “effect on ability of TSH to bind its receptor and stimulate adenylyl cyclase” value in data set [1] is given as “no effect”. For the same molecule, the “maximally induced activity of the receptor” value in [2] is recorded as “did not alter”. In addition, the “inhibition of MSH-R activation” value in data set [3] was “No inhibition”. Further, the “antagonism of receptor activation” value is “did not antagonize” in data set [4], “unaffected” in data set [5] (100 nM agouti) and “did not antagonize” in data set [5] (agouti 0.7 nM). The “increase in FAS mRNA levels” value in data set [6] (48 h treatment) turned out to be 1.5 fold. Besides, in [6] (48 h treatment), the “increase in SCD mRNA levels” value came to 4 fold. In addition, the cellular triglyceride content in data set [6] (agouti, 48 h) is reported as 0.104±0.008 mg triglycerides/mg protein. The “[Ca2+]i Increase over Baseline” value in data set [7] (5 nM Agouti) came out at 49 ± 8 nM; in data set [7] (25 nM Agouti), 32 ± 1 nM; in [8] (5 nM Agouti), 74 ± 6 nM; in [8] (25 nM Agouti), 46 ± 9 nM; in data set [9] (5 nM Agouti), 73 ± 6 nM; in data set [9] (25 nM Agouti), 33 ± 6 nM. Besides, the “[Ca2+]i response” value in data set [7] (50 nM agouti, no channel blocker) is 49 ± 8 nM. Besides, the “Vmax of [Ca2+]i dose-response fit” value in data set [7] (nonlinear least-squares, y=(Vmax·x)/(K+x)) is recorded as 123±15.63. Besides, the EC50 in data set [7] (nonlinear least-squares, y=(Vmax·x)/(K+x), read-out: K of [Ca2+]i dose-response fit) was found to be 62.1 ± 19.4 nM; in [7] (response plateau at 400 s, read-out: apparent EC50 of [Ca2+]i response), 62 ± 19 nM. In addition, the “[Ca2+]i increase over baseline (plateau)” value in data set [9] (50 nM agouti, 400 s after agouti addition) amounted to 73 ± 6 nM. Further, the “[Ca2+]i increase” value in data set [9] (50 nM agouti, after 200 s) came to 44 ± 4 nM.
